# Experimental data taken from the supplement of paper PMC7877785.
# ± gives the uncertainty stated by the source.
# Experiment: self-splicing fitness, log relative to wild type (ln ratio); higher = more splicing; Tetrahymena group I intron in knt gene, E. coli kanamycin selection, DiMSum; sequences stand for … in CUCUCU…GGAGGGAAAAGUUAUCAGGCAUGCACCUGGUAGCUAGUCUUUAAACCAAUAGAUUGCAUCGGUUUAAAAGGCAAGACCGUCAAAUUGCGGGAAAGGGGUCAACAGCCGUUCAGUACCAAGUCUCAGGGGAAACUUUGAGAUGGCCUUGCAAAGGGUAUGGUAAUAAGCUGACGGACAUGGUCCUAACCACGCAGCCAAGUCCUAAGUCAACAGAUCUUCUGUUGAUAUGGAUGCAGUUCACAGACUAAAUGUCGGUCGGGGAAGAUGUAUUCUUCUCAUAAGAUAUAGUCGGACCUCUCCUUAAUGGGAGCUAGCGGAUGAAGUGAUGCAACACUGGAGCCGCUGGGAACUAAUUUGUAUGCGAAAGUAUAUUGAUUAGUUUUGGAGUACUCGUGGUCG
# Summary of the method: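 DiMSum derived fitness as the error-weighted combination of fold changes across replicates, kanamycin versus no kanamycin, normalised to wild type. E. coli BL21(DE3) held the library, which randomised all eight P1ex-region intron nucleotides within the knt kanamycin-resistance gene on pET-22b(+). Six replicate transformations grew overnight at 37°C or 30°C on LB agar with or without 25 μg/mL kanamycin, also containing 100 μg/mL carbenicillin, 50 μM IPTG and 0.2% rhamnose, and pooled colonies were amplicon-sequenced on an Illumina HiSeq 2500.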
Sequence,self-splicing fitness (ln) (30 °C),self-splicing fitness (ln) (37 °C)
AUUGAGCAAUAUUACGGCGG,-3.01 ± 0.19,-1.05 ± 0.38
UAUAAGCAAUAUUACGUAUC,-1.88 ± 0.17,-2.03 ± 0.19
CUCGAGCAAUAUUACGUAUG,-2.93 ± 0.14,-1.2 ± 0.13
GUGCAGCAAUAUUACGGUGA,-0.753 ± 0.095,0.095 ± 0.12
AGACAGCAAUAUUACGGUUA,-0.253 ± 0.082,-0.109 ± 0.079
CCGCAGCAAUAUUACGUGCC,-3.67 ± 0.24,-3.75 ± 0.3
ACUGAGCAAUAUUACGCGGA,-1.94 ± 0.1,-1.74 ± 0.12
ACUAAGCAAUAUUACGGAGG,-2.52 ± 0.11,-1.16 ± 0.13
UCUGAGCAAUAUUACGCUGU,-2 ± 0.23,-1.07 ± 0.19
AAAGAGCAAUAUUACGACAG,-3.56 ± 0.3,-2.86 ± 0.36
ACUUAGCAAUAUUACGGUGA,-1.76 ± 0.15,-1.56 ± 0.15
CUUGAGCAAUAUUACGCAUC,-3.14 ± 0.4,-2.75 ± 0.44
UGAAAGCAAUAUUACGAUGU,-3.04 ± 0.2,-1.81 ± 0.21
CGUUAGCAAUAUUACGGAGU,-4.73 ± 0.31,-3.23 ± 0.26
GCUUAGCAAUAUUACGGAUG,-1.71 ± 0.14,-1.05 ± 0.13
CACCAGCAAUAUUACGGGGC,-4.45 ± 0.22,-1.29 ± 0.14
CCGUAGCAAUAUUACGUCAG,-1.26 ± 0.077,-1.55 ± 0.089
GUGUAGCAAUAUUACGUACA,-1.49 ± 0.2,-1.87 ± 0.28
GGCAAGCAAUAUUACGUGAU,-0.97 ± 0.078,-0.169 ± 0.092
UUACAGCAAUAUUACGCUCG,0.107 ± 0.086,0.283 ± 0.11
AGCAAGCAAUAUUACGAAAA,-3.39 ± 0.19,-2.39 ± 0.18
UUACAGCAAUAUUACGUGAG,-0.626 ± 0.055,0.12 ± 0.092
CUACAGCAAUAUUACGACCU,-4.15 ± 0.46,-0.863 ± 0.17
GACCAGCAAUAUUACGCUUU,-0.00419 ± 0.078,-0.213 ± 0.1
CACAAGCAAUAUUACGUCCA,-3.23 ± 0.2,-1.59 ± 0.12
UAACAGCAAUAUUACGGGGC,-3.63 ± 0.19,-2.86 ± 0.24

Sequence,self-splicing fitness (ln) (30 °C),self-splicing fitness (ln) (37 °C)
UUACAGCAAUAUUACGACGC,0.421 ± 0.26,-1.47 ± 0.36
CAAGAGCAAUAUUACGCCAU,-3.2 ± 0.23,-2.02 ± 0.28
GGCAAGCAAUAUUACGUACA,-0.414 ± 0.071,0.296 ± 0.094
GCUGAGCAAUAUUACGGAAC,-2.25 ± 0.3,-0.857 ± 0.3
CUCCAGCAAUAUUACGCGGA,-3.39 ± 0.2,-3.02 ± 0.22
UGACAGCAAUAUUACGCUCC,-1.28 ± 0.13,-0.275 ± 0.14
UUUUAGCAAUAUUACGUGUC,-2.93 ± 0.3,-2.26 ± 0.38
AGCAAGCAAUAUUACGCUGG,-4.34 ± 0.41,-2.95 ± 0.26
CAGUAGCAAUAUUACGGAAC,,-2.72 ± 0.43
CCUUAGCAAUAUUACGGUGA,-3.63 ± 0.35,-2.91 ± 0.27
GGGUAGCAAUAUUACGCACG,-2.15 ± 0.26,0.541 ± 0.23
GCUCAGCAAUAUUACGCAGA,-3.72 ± 0.2,-2.88 ± 0.2
CAAAAGCAAUAUUACGCAUU,-3.45 ± 0.18,-3.29 ± 0.23
AAAGAGCAAUAUUACGACUA,-2.38 ± 0.3,-1.12 ± 0.25
UGGAAGCAAUAUUACGGCAA,-1.72 ± 0.39,0.0721 ± 0.21
UGUCAGCAAUAUUACGGGAA,-1.71 ± 0.12,-0.986 ± 0.11
CCGGAGCAAUAUUACGUGCU,-2.99 ± 0.17,-2.85 ± 0.24
GCGAAGCAAUAUUACGAUUC,-1.46 ± 0.097,-0.598 ± 0.13
CUGAAGCAAUAUUACGUCGC,-3.18 ± 0.16,-1.55 ± 0.22
GGUAAGCAAUAUUACGCCGA,-2.95 ± 0.43,-0.926 ± 0.25
GAACAGCAAUAUUACGCGUA,-0.925 ± 0.072,-0.411 ± 0.07
CGGGAGCAAUAUUACGCGCA,,-0.737 ± 0.49
CUAGAGCAAUAUUACGCCUG,-0.0979 ± 0.087,0.825 ± 0.12
AGGUAGCAAUAUUACGGACU,0.0184 ± 0.014,0.271 ± 0.033
UUCAAGCAAUAUUACGUUCA,-0.938 ± 0.077,-0.12 ± 0.077
CCUUAGCAAUAUUACGGACU,-2.41 ± 0.19,-2.89 ± 0.43

Sequence,self-splicing fitness (ln) (30 °C),self-splicing fitness (ln) (37 °C)
GACUAGCAAUAUUACGCGCC,-2.11 ± 0.32,-0.0214 ± 0.39
UAUCAGCAAUAUUACGAUCA,-0.115 ± 0.11,0.19 ± 0.14
GGCUAGCAAUAUUACGGGUG,-0.804 ± 0.094,-0.739 ± 0.1
AGCAAGCAAUAUUACGAGCC,-1.65 ± 0.37,
CAGGAGCAAUAUUACGAUAC,-2.81 ± 0.4,
UAAUAGCAAUAUUACGUCGC,-3.86 ± 0.43,-1.71 ± 0.35
ACUGAGCAAUAUUACGCGGC,-3.69 ± 0.4,-2.28 ± 0.28
CAACAGCAAUAUUACGGCGG,-0.393 ± 0.056,0.0944 ± 0.082
CGGGAGCAAUAUUACGGUAU,-3.81 ± 0.47,-2.36 ± 0.42
CUUGAGCAAUAUUACGUACA,-1.97 ± 0.4,-1.77 ± 0.38
UUGUAGCAAUAUUACGGGAC,-0.759 ± 0.16,-2.7 ± 0.36
GCUGAGCAAUAUUACGCUCG,-2.7 ± 0.36,-0.729 ± 0.26
GACCAGCAAUAUUACGGUUU,-2.44 ± 0.083,-0.744 ± 0.079
GAAGAGCAAUAUUACGCCAG,,-0.627 ± 0.38
AGUUAGCAAUAUUACGGACC,-0.357 ± 0.11,-0.279 ± 0.16
AUCCAGCAAUAUUACGUUCC,-1.19 ± 0.13,-0.575 ± 0.25
UUGGAGCAAUAUUACGUUAA,-2.09 ± 0.25,-1.91 ± 0.25
UGCCAGCAAUAUUACGACGA,-1.01 ± 0.12,-1.01 ± 0.12
GGUCAGCAAUAUUACGGUGG,-4.17 ± 0.28,-1.32 ± 0.13
GUAUAGCAAUAUUACGCGCA,-1.2 ± 0.17,-0.955 ± 0.14
CGUUAGCAAUAUUACGAGCA,-0.917 ± 0.09,-0.809 ± 0.089
AGCCAGCAAUAUUACGACCC,-1.46 ± 0.34,-0.503 ± 0.24
GCCAAGCAAUAUUACGCACU,-0.915 ± 0.077,-0.196 ± 0.097
GGUAAGCAAUAUUACGUAUG,-3.72 ± 0.29,-2.32 ± 0.18
